From PMC4570271, “Resolution of structure of PIP5K1A reveals molecular mechanism for its regulation by dimerization and dishevelled” (Nature Communications, 2015)

T1: zebrafish PIP5K1A kinase catalytic domain (residues 49-431), wild type (zebrafish, UniProt Q503I3 49-431)
T1 chain: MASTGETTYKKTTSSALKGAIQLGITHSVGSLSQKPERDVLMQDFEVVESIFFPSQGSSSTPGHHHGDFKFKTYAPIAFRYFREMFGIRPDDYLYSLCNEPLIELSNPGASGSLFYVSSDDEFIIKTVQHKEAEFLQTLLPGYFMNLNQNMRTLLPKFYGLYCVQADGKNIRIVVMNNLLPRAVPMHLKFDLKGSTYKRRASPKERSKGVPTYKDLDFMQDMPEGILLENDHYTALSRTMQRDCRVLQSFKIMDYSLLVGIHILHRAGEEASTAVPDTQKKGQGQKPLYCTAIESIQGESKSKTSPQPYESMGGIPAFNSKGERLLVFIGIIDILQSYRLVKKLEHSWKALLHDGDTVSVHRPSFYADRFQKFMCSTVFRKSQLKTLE

B1: zebrafish PIP5K1A kinase catalytic domain (residues 49-431), wild type (domain or fragment)
chain: MASTGETTYKKTTSSALKGAIQLGITHSVGSLSQKPERDVLMQDFEVVESIFFPSQGSSSTPGHHHGDFKFKTYAPIAFRYFREMFGIRPDDYLYSLCNEPLIELSNPGASGSLFYVSSDDEFIIKTVQHKEAEFLQTLLPGYFMNLNQNMRTLLPKFYGLYCVQADGKNIRIVVMNNLLPRAVPMHLKFDLKGSTYKRRASPKERSKGVPTYKDLDFMQDMPEGILLENDHYTALSRTMQRDCRVLQSFKIMDYSLLVGIHILHRAGEEASTAVPDTQKKGQGQKPLYCTAIESIQGESKSKTSPQPYESMGGIPAFNSKGERLLVFIGIIDILQSYRLVKKLEHSWKALLHDGDTVSVHRPSFYADRFQKFMCSTVFRKSQLKTLE
notes: kinase catalytic domain of zebrafish PIP5K1Aα, residues 49-431; C-terminal 'Leu-Glu' that precedes the His6 tag; Dimer by SEC/MALLS and in the crystal; also called zPIP5K1A; PIP5K1A kinase domain; not shown: His6, C-terminal, kept
B2: GST-tagged DIX domain of mouse DVL1 (residues 1-106) with Y17D (domain or fragment, UniProt P51141 1-106, looked up)
chain: MAETKIIYHMDEEETPDLVKLPVAPERVTLADFKNVLSNRPVHAYKFFFKSMDQDFGVVKEEIFDDNAKLPCFNGRVVSWLVLAEGAHSDAGSQGTDSHTDLPPPL
notes: DIX domain of mouse DVL1, residues 1-106, Y17D to eliminate DIX aggregation; A longer construct 1-200 (DIX-L) is named in the methods but tied to no experiment; also called DVL DIX; GST-DVL; source: E. coli, purified (glutathione-agarose beads, size-exclusion chromatography)

Assays:
[1] = biological target: the molecule itself; assay: SEC-MALS; Superdex S-200 10/30 HR; 10 mM HEPES (pH 7.3), 300 mM NaCl, 5% glycerol, 0.01% TX-100; 0.5 ml/min
[2] = biological target: B2; assay: cell-based or functional assay
[3] = biological target: B1; assay: pull-down; GST-DIX (or GST) 0.5 μg and His-tagged PIP5K1 0.5 μg in 200 μl of 10 mM HEPES (pH 7.4), 150 mM NaCl, 0.2% Triton, 0.01% SDS, 3 mM dithiothreitol, 10% glycerol; 4 °C overnight; glutathione beads; western blotting; conditions: both partners purified
[4] = biological target: T2, zebrafish PIP5K1A kinase catalytic domain, triple D84R/L86A/V291A (DLV) mutant (zebrafish, UniProt Q503I3 49-431, D84R | L86A | V291A); assay: as above; conditions: both partners purified
T2 construct: kinase catalytic domain of zebrafish PIP5K1Aα, residues 49-431; C-terminal 'Leu-Glu' that precedes the His6 tag; Monomeric by SEC/MALLS; also called monomeric mutant DLV; TM-PIP5K; source: E. coli BL21-CodonPlus(DE3)-RIL, purified in the same way as the wild-type protein; not shown: His6, C-terminal, kept

[5] = biological target: T1, zebrafish PIP5K1A kinase catalytic …; assay: ITC

Binder	stoichiometry N [1]	fold activation of the lipid kinase activity by DIX [2]	binding result [3]	binding result [4]	Kd [5]
B1	2	3 fold	–	–	–
B2	–	–	binds	binds	1.2 µM
